Test results taken from patent US7572612B2, “Method of production of para-hydroxycinnamic acid using a thermostable TAL enzyme” (E.I. du Pont de Nemours and Company, priority 2006, dated 2009).

What was measured:
[1] = Kinetic parameters of the PcTAL enzyme for tyrosine; assay type: biochemical; settings: from kcat/KM, 45° C., 100 mM CAPS pH 9.5
Experimental: The kinetic parameters of the PcTAL enzyme for tyrosine and phenylalanine were determined at 45° C., in 100 mM CAPS, pH 9.5 buffer. The increase of TAL and PAL activities with increasing substrate concentrations followed the typical Michaelis-Menton equation. The kcat of the enzyme was 1.3 S^−1 for tyrosine, and 3.3 S^−1 for phenylalanine. The KM was 44 μM for tyrosine and 161 μM for phenylalanine. The kcat/KM value was slightly higher for tyrosine (3.0 M^−1 S^−1) than for phenylalanine (2.1 M^−1 S^−1), indicating the enzyme's slight preference for tyrosine (PAL/TAL ratio of 0.7). […] The substrate specificity of the PcTAL enzyme is therefore similar to other known fungal PAL/TAL enzymes, such as that from R. glutinis, with dual specificity for tyrosine and phenylalanine.

[2] = Whole cell TAL activity temperature profile; assay type: cell-based, E. coli
Experimental: A fermentation run was performed as in Example 6 for strain DPD5154. The TAL activity of the strain was measured in a cell-based assay at different temperatures. The fermentation cell paste was resuspended in water, and diluted to OD600 of 3.0. Formation of pHCA was monitored in a 1.0 ml reaction in a UV grade disposable cuvette (VWR) for three minutes at λ315 nm, 35° C. with 0.03 OD600 of DPD5154 cells, in 100 mM CAPS, pH10 with 10 mM tyrosine. The pH value of the CAPS buffer was adjusted according to the corresponding assay temperature, which was varied from 25° C. to 60° C. The TAL activity was calculated using the following equation based on the assumption that 1.0 OD600 of E. coli cells is equivalent to 0.33 g/L dry cell weight (dcw). The extinction coefficient of pHCA at pH 10 at 315 nm had previously been experimentally determined to be 16,800 M^−1 cm^−1. One unit of enzyme activity is defined as the formation of 1.0 μM of pHCA product per minute reaction. The total TAL Activity (μM/min)=Initial Slope (/min)×[1,000,000 (μM/M)/16,800 M^−1 cm^−1]=Slope (/min)×59.52 (μM)

[3] = Conversion of tyrosine to pHCA in 3 L Applikon BioReactors; assay type: cell-based, E. coli
Experimental: The following experiment was performed in an Applikon BioReactor (9.0 liter working volume) where pH and temperature of the reaction were controlled. Both strains DPD5154 and DPD5124 were tested. The E. coli DPD5154 (PcTAL) cells were produced by the protocol described in Example 6, with a final cell density of […]. In the case of E. coli DPD5124 (RgTAL) the inoculum was grown in a 2.0 L shake flask containing 500 ml of the following medium (in grams per liter) KH2PO4 (2.0 g/L), K2HPO4 (13.0 g/L), (NH4)2HPO4 […]), MgSO4.7H2O (1.0 g/L), yeast extract (2.0 g/L), Ferric Ammonium Citrate (0.1 g/L). The pH was adjusted to 7.0 and the medium steam sterilized. Glucose (30.0 g/L) and ampicillin (50 mg/L) were added post-sterilization. The culture was grown in 2 L flasks with 500 mL medium, at 35° C. to about OD550 of 2.0 and then the entire contents was used to inoculate the fermentor. The fermentor was controlled at 36° C., pH 6.8, with the dissolved oxygen (DO) tension of 25% controlled with cascade of agitation and air flow with agitation from 400 to 1000 rpm and airflow from 2 to 16 SLPM. The overhead pressure was 0.5. When the glucose level reached below 4.0 g/L a glucose feed program with 60% glucose (w/w) was initiated, consisting of: first 4 h at 0.36 g/min, next 12 h at 0.73 g/min and to the end of run at 0.56 g/min. When the culture reached an OD550 of 35, arabinose was added to final concentration of 0.5 g/L The fermentation was terminated 20 h after arabinose addition. The final cell density in the fermentation broth was an OD550 of 90 and the final volume was about 9 liter. The g dcw/L was determined assuming that 1.0 OD550 contained 0.33 g dcw/L:=30 g dcw/L.
The cells were harvested by centrifugation and stored as a frozen paste at −80° C. until use. Before use, the cell paste was thawed and suspended in the saline solution to about 10% w/v. The cell dry weight concentration was calculated from [cells wet weight]×[% solids] where [% solids] was determined after drying the cells in a vacuum oven, at 90° C. for >16 h.
The tyrosine used was AR grade (J. T. Baker). It was suspended in distilled, deionized water at 33% w/w concentration, homogenized in a blender and added to about 50 g/L final concentration. Reactions were conducted in 3 L Applikon BioReactors (Applikon, De Brauwweg 13, The Netherlands), with a 1-2 L working volume. The set points for the control systems were pH 9.9 with automatic addition of NaOH 25% w/v with agitation at 400 rpm. The bioconversion was typically done by adding the tyrosine suspension to the appropriate concentration, adjusting the pH and temperature to the determined set point, adding the cell suspension to the appropriate concentration, and DI water to the final volume.

[4] = 30 C., cell conc 6 g/L, reaction time 19 h
[5] = 35 C., cell conc 6 g/L, reaction time 15 h
[6] = 40 C., cell conc 6 g/L, reaction time 7 h
[7] = 43 C., cell conc 6 g/L, reaction time 6 h
[8] = 45 C., cell conc 2 g/L, reaction time 19 h
[9] = 45 C., cell conc 4 g/L, reaction time 10 h
[10] = 45 C., cell conc 6 g/L, reaction time 6 h
[11] = 48 C., cell conc 6 g/L, reaction time 6 h

B1: PcTAL: thermostable tyrosine ammonia lyase (PAL/TAL) enzyme from Phanerochaete chrysosporium, SEQ ID NO:1 (protein, listed as Phanerochaete chrysosporium)
chain: MPSRIDYYTSSGNGYAQSRKSSAIYPASASTGHAAPSTERKPELLDKFVEAYDELQSYREGKPVIVDGHNLSIPAVAATARFGAAVVLDENPETHERVLQSRRVIVDKVSTQRSVYGVSTGFGGSADTRTSDPLQLGHALLQHQHVGVLPTQTESPLPALPLGDPLATTSMPEAWVRGAILIRMNSLIRGHSGVRWELIEKMGELLRENITPLVPLRGSISASGDLSPLSYIAGTLIGSPAIRVFDGPASYGARRILPSNIALANHGVAPIPLSSKEHLGILNGTAFSASVGALALNEAVHLSLLAQVCTAMGTEAMIGAVGSFDAFIHDTARPHPGQVEVARNVRTLLEDSQMAVKAEDEVHIAEDEGELRQDRYPLRTAAQFLGPQIEDILSAHETVTLECNSTTDNPLIDGETGTVHHGGNFQAMAVTNAMEKTRLAIHHIGKLLFAQATELINPMMNRGLPPNLAATDPSHNYFAKGVDIHLAAYVGELGFLASPVSSHIQSAEMHNQAVNSLALVSARYTISALDVLSLLTAAYLYVLCQALDLRAMHNDLQSSLSAIVRELLPKHFPSAAKRADALLPILERTIFRALNSSSSADCKARMVSVAASTTTPLVDFLSADAALASELANITAFRTELATRAADALTTLRTQYLEGARGAAPASKYLGKTRPVYEFVRVTLNVPMHGRENLHNFEMGPGVEDGIIGNNISTIYEAIRDGKMQNVVMQLVKSIKA
With B1 the PAL/TAL ratio [1] was 0.7, the “activity at 60° C. relative to that at 25° C. in whole cells” value [2] was “about 6 fold” and the “Prod g/L-h” value [3, 4] was 2.20 g/L-h. The Prod g/g-h [3, 4] was 0.37 g/g-h, the “Prod g/L-h” value [3, 5] was 2.79 g/L-h and the Prod g/g-h [3, 5] was 0.46 g/g-h. For the same molecule, the “Prod g/L-h” value [3, 6] was 5.94 g/L-h, the Prod g/g-h [3, 6] was 0.99 g/g-h and the “Prod g/L-h” value [3, 7] was 6.90 g/L-h. For the same molecule, the Prod g/g-h [3, 7] was 1.15 g/g-h, the “Prod g/L-h” value [3, 8] was 2.22 g/L-h and the Prod g/g-h [3, 8] was 1.11 g/g-h. The “Prod g/L-h” value [3, 9] was 4.18 g/L-h, the Prod g/g-h [3, 9] was 1.05 g/g-h and the “Prod g/L-h” value [3, 10] was 6.83 g/L-h. The Prod g/g-h [3, 10] was 1.14 g/g-h, the “Prod g/L-h” value [3, 11] was 7.00 g/L-h and the Prod g/g-h [3, 11] was 1.17 g/g-h.
